Results reported in patent US20120225088, “COMPOSITIONS AND METHODS FOR TREATING CANCER AND OTHER DISEASES” (published 2012).

What was measured:
Details in all cases: tags: endogenous on Ramos Burkitt's lymphoma cells; label: 5' FITC or Cy3; stem-loop hairpin
[1] = target: T1, membrane-bound IgM (mIgM, immunoglobulin heavy mu chain of B-cell receptor) (Homo sapiens, UniProt P01871 P01871:1-474); assay: flow; Bmax/2 (Kd') on Ramos cells, 4 C, 5 mM MgCl2
Procedure: (§1) All the in vitro experiments were done using a binding buffer composed of RPMI 1640 and 4.5 g/L glucose (Sigma-Aldrich) and 5 mM MgCl₂ for monomers, 20 mM MgCl₂ for multimers (Sigma-Aldrich), 100 mg/L tRNA (Sigma-Aldrich), 100 mg/L single stranded DNA (Sigma-Aldrich), 100 mg/L BSA (Sigma-Aldrich) and binding was analyzed for binding using flow cytometry in binding buffer (Acurri C6) using binding buffer. We used 20 mM Mg⁺² for optimal for the folding of the aptamer in vitro and 5 mM Mg⁺² for experiments in vivo. The binding buffer consists of tRNA and single stranded DNA that are capable of scavenging Mg⁺² thereby reducing the effective concentration of Mg ions. […]
(§2) Cell Binding Assays. Affinity of each construct was evaluated by incubating Ramos cells (2.5×10⁵) with a series of FITC or Cy3 labeled constructs in a 50 μL of binding buffer on ice for 45 min Cells were then washed with lmL of wash buffer at 4° C. and resuspended in 100 μL of wash buffer. The binding of the constructs was analyzed using flow cytometry by counting 10,000 events for each concentration. […] Binding at respective concentrations and absolute fluorescence intensity difference was used for the binding curves. When calculating the relative binding constant, binding curves were fitted with median fluorescence intensity observed for each histogram and observed Bmax/2 was used as the binding constant. […]

[2] = target: T1, membrane-bound IgM (mIgM, …); assay: flow; Bmax/2 on Ramos cells, 4 C, 5 mM MgCl2
Procedure: as §1, §2

[3] = target: T1, membrane-bound IgM (mIgM, …); assay: flow; Bmax/2 on Ramos cells, 4 C
Procedure: as §1, §2

T1 sequence (P01871 whole entry, one chain of several): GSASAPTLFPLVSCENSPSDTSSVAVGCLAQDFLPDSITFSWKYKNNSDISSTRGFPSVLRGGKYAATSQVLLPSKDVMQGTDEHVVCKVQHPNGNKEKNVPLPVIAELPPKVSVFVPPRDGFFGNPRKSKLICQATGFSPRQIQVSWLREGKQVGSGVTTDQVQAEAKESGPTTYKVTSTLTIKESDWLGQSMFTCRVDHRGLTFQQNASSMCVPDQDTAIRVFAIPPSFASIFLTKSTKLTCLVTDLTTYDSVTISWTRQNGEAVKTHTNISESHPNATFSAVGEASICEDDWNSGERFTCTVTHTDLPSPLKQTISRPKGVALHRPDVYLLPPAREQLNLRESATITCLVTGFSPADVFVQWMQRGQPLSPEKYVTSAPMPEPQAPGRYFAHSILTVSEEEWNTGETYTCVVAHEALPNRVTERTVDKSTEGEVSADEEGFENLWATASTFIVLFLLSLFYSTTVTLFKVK

Binder	Kd [2]	further results
ACCGTGGAGGATAGTTCGGTGGCTGTTCAGGGTCTCCTCCACGGT (ssDNA) [TD05]		Kd [1]: 359 nM
AGGAGGATAGTTCGGTGGCTGTTCAGGGTCTCCTCCT (ssDNA) [TD05.1]	53 nM	
AGGAGGATAGTTCGGTGGCTGTTCAGGGTCTCCTCCT (ssDNA, LNA at last four nucleotides (3' stem pyrimidines TCCT) [34,35,36,37 (LNA)]) [TD05.17]		Kd [3]: 43 nM
CGTGGAGGATAGTTCGGTGGCTTCAGGGTCTCCTCCCG (ssDNA) [TD05.7]	148 nM	
